From article PMC9616490

Assays:
Experiment in all cases: cryo-EM structure
Conditions in all cases: remark: other sources report otherwise
[1] = target: T1, human Na-K-2Cl cotransporter-1 (hNKCC1), full-length wild type (human), P55011
T1 chain: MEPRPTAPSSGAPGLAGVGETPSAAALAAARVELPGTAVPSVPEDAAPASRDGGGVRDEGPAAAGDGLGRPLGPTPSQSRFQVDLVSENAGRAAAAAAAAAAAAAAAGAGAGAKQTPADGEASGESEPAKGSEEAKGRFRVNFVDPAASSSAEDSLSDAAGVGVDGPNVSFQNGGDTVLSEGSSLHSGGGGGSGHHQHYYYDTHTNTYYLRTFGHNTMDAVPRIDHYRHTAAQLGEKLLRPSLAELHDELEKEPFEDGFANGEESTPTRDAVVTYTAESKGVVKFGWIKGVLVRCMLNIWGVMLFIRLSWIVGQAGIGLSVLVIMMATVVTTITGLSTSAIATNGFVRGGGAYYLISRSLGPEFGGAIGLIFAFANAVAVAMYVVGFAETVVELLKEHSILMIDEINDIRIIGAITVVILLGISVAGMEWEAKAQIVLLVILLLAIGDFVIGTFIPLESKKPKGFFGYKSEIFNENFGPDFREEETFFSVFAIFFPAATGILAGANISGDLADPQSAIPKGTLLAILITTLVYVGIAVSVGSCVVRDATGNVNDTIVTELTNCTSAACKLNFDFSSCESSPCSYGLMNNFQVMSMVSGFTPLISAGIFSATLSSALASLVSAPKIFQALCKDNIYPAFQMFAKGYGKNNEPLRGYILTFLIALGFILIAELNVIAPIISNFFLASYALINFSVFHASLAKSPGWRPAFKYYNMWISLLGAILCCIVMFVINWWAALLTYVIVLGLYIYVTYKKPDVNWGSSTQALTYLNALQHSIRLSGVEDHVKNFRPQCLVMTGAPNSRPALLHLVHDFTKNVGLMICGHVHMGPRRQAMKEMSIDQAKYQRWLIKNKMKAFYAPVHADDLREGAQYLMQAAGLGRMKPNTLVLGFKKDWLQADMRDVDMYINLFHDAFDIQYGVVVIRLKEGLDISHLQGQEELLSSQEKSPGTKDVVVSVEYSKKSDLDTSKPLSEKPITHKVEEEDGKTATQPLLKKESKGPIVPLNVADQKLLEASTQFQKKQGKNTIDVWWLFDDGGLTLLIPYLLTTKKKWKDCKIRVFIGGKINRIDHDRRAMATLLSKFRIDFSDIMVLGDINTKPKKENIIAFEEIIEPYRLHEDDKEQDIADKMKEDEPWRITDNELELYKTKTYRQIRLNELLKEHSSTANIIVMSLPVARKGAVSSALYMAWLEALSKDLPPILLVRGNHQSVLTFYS

[2] = target: T1, human Na-K-2Cl cotransporter-1 …
[3] = target: T1, human Na-K-2Cl cotransporter-1 …

Measured: stoichiometry N

B1: human Na-K-2Cl cotransporter-1 (hNKCC1), full-length wild type, P55011 1-1212 (natural protein)
chain: MEPRPTAPSSGAPGLAGVGETPSAAALAAARVELPGTAVPSVPEDAAPASRDGGGVRDEGPAAAGDGLGRPLGPTPSQSRFQVDLVSENAGRAAAAAAAAAAAAAAAGAGAGAKQTPADGEASGESEPAKGSEEAKGRFRVNFVDPAASSSAEDSLSDAAGVGVDGPNVSFQNGGDTVLSEGSSLHSGGGGGSGHHQHYYYDTHTNTYYLRTFGHNTMDAVPRIDHYRHTAAQLGEKLLRPSLAELHDELEKEPFEDGFANGEESTPTRDAVVTYTAESKGVVKFGWIKGVLVRCMLNIWGVMLFIRLSWIVGQAGIGLSVLVIMMATVVTTITGLSTSAIATNGFVRGGGAYYLISRSLGPEFGGAIGLIFAFANAVAVAMYVVGFAETVVELLKEHSILMIDEINDIRIIGAITVVILLGISVAGMEWEAKAQIVLLVILLLAIGDFVIGTFIPLESKKPKGFFGYKSEIFNENFGPDFREEETFFSVFAIFFPAATGILAGANISGDLADPQSAIPKGTLLAILITTLVYVGIAVSVGSCVVRDATGNVNDTIVTELTNCTSAACKLNFDFSSCESSPCSYGLMNNFQVMSMVSGFTPLISAGIFSATLSSALASLVSAPKIFQALCKDNIYPAFQMFAKGYGKNNEPLRGYILTFLIALGFILIAELNVIAPIISNFFLASYALINFSVFHASLAKSPGWRPAFKYYNMWISLLGAILCCIVMFVINWWAALLTYVIVLGLYIYVTYKKPDVNWGSSTQALTYLNALQHSIRLSGVEDHVKNFRPQCLVMTGAPNSRPALLHLVHDFTKNVGLMICGHVHMGPRRQAMKEMSIDQAKYQRWLIKNKMKAFYAPVHADDLREGAQYLMQAAGLGRMKPNTLVLGFKKDWLQADMRDVDMYINLFHDAFDIQYGVVVIRLKEGLDISHLQGQEELLSSQEKSPGTKDVVVSVEYSKKSDLDTSKPLSEKPITHKVEEEDGKTATQPLLKKESKGPIVPLNVADQKLLEASTQFQKKQGKNTIDVWWLFDDGGLTLLIPYLLTTKKKWKDCKIRVFIGGKINRIDHDRRAMATLLSKFRIDFSDIMVLGDINTKPKKENIIAFEEIIEPYRLHEDDKEQDIADKMKEDEPWRITDNELELYKTKTYRQIRLNELLKEHSSTANIIVMSLPVARKGAVSSALYMAWLEALSKDLPPILLVRGNHQSVLTFYS
2: all assays above
